According to patent publication US20190359986A1 (ROCHE INNOVATION CENTER COPENHAGEN A S, published 2019):
Positions count from the first letter of the chain named.

Biological target: TNF-α
Assay: cell-based or functional assay

B1: mouse TNFR2 Δ7 (SSO-induced, in serum of SSO 3274 or SSO 3305 treated mice) (receptor)
chain: VPAQVVLTPYKPEPGYECQISQEYYDRKAQMCCAKCPPGQYVKHFCNKTSDTVCADCEASMYTQVWNQFRTCLSCSSSCTTDQVEIRACTKQQNRVCACEAGRYCALKTHSGSCRQCMRLSKCGPGFGVASSRAPNGNVLCKACAPGTFSDTTSSTDVCRPHRICSILAIPGNASTDAVCAPESPTLSAIPRTLYVSQPEPTRSQPLDQEPGPSQTPSILTSLGSTPIIEQSTKGGISLPIEKPSCLQRDAKVPHVPDEKSQDAVGLEQQHLLTTAPSSSSSSLESSASAGDRRAPPGGHPQARVMAEAQGFQEARASSRISDSSHGSHGTHVNVTCIVNVCSSSDHSSQCSSQASATVGDPDAKPSASPKDEQVPFSQEECPSQSPCETTETLQSHEKPLPLGVPDMGMKPSQAGWFDQIAVKVA
In the case of B1, the “EC50, L929 cytotoxicity assay; SSO 3274 treated mice serum” value is reported as 0.8 ng/mL and the “EC50, L929 cytotoxicity assay; SSO 3305 treated mice serum” value is reported as 0.6 ng/mL.

B2: human TNFR2 Δ7 with His-tag, from clone 1319-1 transfected HeLa cells (receptor)
chain: LPAQVAFTPYAPEPGSTCRLREYYDQTAQMCCSKCSPGQHAKVFCTKTSDTVCDSCEDSTYTQLWNWVPECLSCGSRCSSDQVETQACTREQNRICTCRPGWYCALSKQEGCRLCAPLRKCRPGFGVARPGTETSDVVCKPCAPGTFSNTTSSTDICRPHQICNVVAIPGNASMDAVCTSTSPTRSMAPGAVHLPQPVSTRSQHTQPTPEPSTAPSTSFLLPMGPSPPAEGSTGDFALPVEKPLCLQREAKVPHLPADKARGTQGPEQQHLLITAPSSSSSSLESSASALDRRAPTRNQPQAPGVEASGAGEARASTGSSDSSPGGHGTQVNVTCIVNVCSSSDHSSQCSSQASSTMGDTDSSPSESPKDEQVPFSKEECAFRSQLETPETLLGSTEEKPLPLGVPDAGMKPSKGQDNSADIQHSGGRSSLEGPRFEGKPIPNPLLGLDSTRTGHHHHHH
modifications: variably glycosylated
B2 was tested, and the “EC50, L929 cytotoxicity assay; extracellular media from 1319-1 transfected HeLa cells” value was 1.7 ng/mL.

B3: human TNFR2 Δ7 without His-tag, from clone 1230-1 transfected HeLa cells (receptor)
chain: LPAQVAFTPYAPEPGSTCRLREYYDQTAQMCCSKCSPGQHAKVFCTKTSDTVCDSCEDSTYTQLWNWVPECLSCGSRCSSDQVETQACTREQNRICTCRPGWYCALSKQEGCRLCAPLRKCRPGFGVARPGTETSDVVCKPCAPGTFSNTTSSTDICRPHQICNVVAIPGNASMDAVCTSTSPTRSMAPGAVHLPQPVSTRSQHTQPTPEPSTAPSTSFLLPMGPSPPAEGSTGDFALPVEKPLCLQREAKVPHLPADKARGTQGPEQQHLLITAPSSSSSSLESSASALDRRAPTRNQPQAPGVEASGAGEARASTGSSDSSPGGHGTQVNVTCIVNVCSSSDHSSQCSSQASSTMGDTDSSPSESPKDEQVPFSKEECAFRSQLETPETLLGSTEEKPLPLGVPDAGMKPS
With B3 the “EC50, L929 cytotoxicity assay; extracellular media from 1230-1 transfected HeLa cells” value was 1.4 ng/mL.

B4: human TNFR2 Δ7 with glutamine 352 changed to arginine, from clone 1138-5 transfected HeLa cells (receptor)
chain: B3 chain with Q330R
For B4, the “EC50, L929 cytotoxicity assay; extracellular media from 1138-5 transfected HeLa cells” value was 1.8 ng/mL.
